Experiments:
MEF cells [1] = test: Detection of mitophagy in mammalian cells using mt-SRAI′; assay type: cell-based, Mouse; details: 30 μM CCCP, 18 hours, MEF cells with mCherry-Parkin, compared to before addition
Description: A construct that expresses mt-SRAI′ was introduced into MEF cells, in an attempt to visualize and detect mitophagy. mt-SRAI/pMCSTRE3G, pEF1α-Tet3G, and mCherry-Parkin/pcDNA3 which is a factor necessary for mitophagy, were introduced, each in an amount of 0.5 μg, into MEF cells with use of Lipofectamine (Registered Trademark) 2000. Six hours after the introduction, the medium was replaced by a nutrient medium containing 1 μg/ml doxycycline. Twenty-four hours later, induction of expression was stopped, and the nutrient medium was replaced by a nutrient medium containing no doxycycline, so that localization and degradation of a probe remaining in the cytoplasm was encouraged. Eighteen hours later, mitophagy was induced with use of 30 μM carbonyl cyanide m-chlorophenylhydrazone (CCCP), and then 18 hours later, the cells were subjected to imaging. […] In performing the imaging and obtaining and analyzing the images, the same conditions as those for the detection of autophagy in fixed mammalian cells were applied. Ratio images were generated in IMD display in a range of 0 to 0.4.

pepsin = test: Resistance to degradation by acidic protease (incubation in pH 7.0 / pH 4.0 / pH 4.0 + pepsin buffers); assay type: physicochemical
Description: An Escherichia coli test was conducted which included a treatment of incubating purified recombinant proteins in each of three reaction buffers (pH 7.0/no pepsin, pH 4.0/no pepsin, pH 4.0/0.05% pepsin). The reaction buffers had been prepared as 25 mM HEPES buffer (pH 7.0) or 25 mM acetic acid buffer (pH 4.0) (119 mM NaCl, 2.5 mM KCl, 2 mM CaCl2, 2 mM MgCl2, and 30 mM glucose). A mixture obtained by adding each purified protein to each of the reaction buffers was incubated at 37° C. for 2 hours. The mixture was divided into two, each of which was then subjected to fluorescence intensity measurement and western blotting. The fluorescence intensity measurement was conducted after the pH of the mixture was prepared by diluting the mixture by 200 folds with use of a buffer at pH 7.0. For detection of a protein by means of western blotting, the following antibodies were used. AFFP: a rabbit anti-Azami-Green antibody (MBL, PM052M). EGFP and Ypet: a rabbit anti-GFP antibody (CST, #2555).
With use of SRAI/pRSETB, the same procedure as the fluorescence intensity measurement in the item <Confirmation of resistance to degradation by acidic protease> was carried out. Fluorescence intensity measurement was conducted by irradiating the AFFP part in SRAI with excitation light of 410 nm and irradiating the Ypet part in SRAI with excitation light of 500 nm.
Experiments were conducted to determine whether or not a probe (Rosella) reported by Rosado et al. was suitable for measuring autophagy as compared with SRAI. A construct of Rosella was expressed in Escherichia coli, and a recombinant fluorescent protein was purified. The recombinant fluorescent protein was incubated for 2 hours at 37° C. in a reaction buffer at pH 7.0, a reaction buffer at pH 4.0 (with 0.05% pepsin), and a reaction buffer at pH 4.0 (without 0.05% pepsin) in accordance with a previous report (Katayama, H, et al. (2008) Cell Struct. Funct. 33, 1-12), and was subjected to fluorescence measurement. Before the fluorescence measurement, pHs of these samples were adjusted to coincide with each other by diluting each sample with a buffer (pH 7.0) by 200 folds. The reaction buffers had each been prepared as 25 mM HEPES buffer (pH 7.0) or 25 mM acetic acid buffer (pH 4.0) (119 mM NaCl, 2.5 mM KCl, 2 mM CaCl2, 2 mM MgCl2, and 30 mM Glucose).

MEF cells [2] = test: Detection of autophagy in mammalian cells (ratio imaging); assay type: cell-based, Mouse; details: living MEF cells, HBSS 37° C. 2 hours
Description: SRAI/pcDNA3 was introduced into MEF cells so as to express SRAI therein, and whether or not SRAI was suitable for observation of autophagy was evaluated. As a control, mCherry-EGFP was used. In order for mCherry-EGFP to be equivalent to an amino acid sequence presented in a previous report (Elsa-Noah N'Diaye, et al., (2009) EMBO reports 10, 173-179), (i) a BamHI/HindIII fragment of mCherry, which fragment contained no stop codon, (ii) a HindIII/EcoRI fragment of EGFP, in which fragment cDNA encoding a linker ([…]) (SEQ ID NO: 6) at N-terminus was added, and (iii) a BamHI/EcoRI fragment of pcDNA3 were ligated with each other, thereby producing mCherry-EGFP/pcDNA3. […]
In imaging, Cool SNAP HQ2 (Photometrics) was used as a camera, UplanF1 40× oil N.A.1.30 (Olympus) was used as an objective lens, and U-MCFPH Q (for AFFP), U-MYFPH Q (for Ypet), U-MRFPH Q (for mCherry), and U-MGFPH Q (for EGFP) were used as filter cubes (each cube is manufactured by Olympus). Images were obtained and analyzed with use of MetaMorph (Universal Imaging Corporation). […]
Further, Rosella was introduced into MEF cells in an attempt to visualize and detect autophagy. […] Images were obtained and analyzed with use of MetaMorph (Universal Imaging Corporation), and ratio images were produced as DsRed.T3/SE P in IMD display in a range of 0 to 1 (the scale bar for FIG. 12 is 20 μm).

MEF cells [3] = test: Detection of autophagy in fixed mammalian cells; assay type: cell-based, Mouse; details: MEF cells fixed 15 minutes in PBS containing 4% PFA
Description: Subsequently, examination was conducted to examine whether or not SRAI would detection of autophagy also in fixed cells. The same operations as those of the autophagy detection above were conducted, except that (i) only SRAI was observed and (ii) after observation of living cells, the cells were fixed and observed again in the same field of view. The living cells were fixed for 15 minutes at room temperature in PBS containing 4% PFA, and cells thus fixed were subjected to washing with use of HBSS (5 minutes×3 times) and then subjected to observation for the second time.

[4] = Escherichia coli test: fluorescence intensity of purified recombinant proteins; assay type: physicochemical; details: expressed at 18° C., buffer at pH 7.0, equal protein concentration
Description: AFFP and mAG407 were expressed in Escherichia coli (18° C.) and a mammalian cell (Mouse embryonic fibroblast (MEF) cell) (37° C.) so as to be compared with each other in terms of fluorescence intensity. Comparison of fluorescence intensity between AFFP and mAG407 which were expressed in Escherichia coli was conducted in accordance with a previous report (Katayama, H, et al., (2008) Cell Struct. Funct. 33, 1-12). The concentrations of purified recombinant proteins were adjusted to coincide with each other, and the fluorescence intensity of each fluorescent protein was measured in a buffer at pH 7.0. A test conducted with respect to a protein expressed in Escherichia coli in accordance with the aforementioned Katayama, H, et al. will be hereinafter simply referred to as “Escherichia coli test.”
Both in the Escherichia coli test and the MEF cell test, AFFP was excited with use of excitation light having an excitation peak wavelength (406 nm) and mAG407 was excited with use of excitation light having an excitation peak wavelength (407 nm), in the measurement of fluorescence intensity. Further, both in the Escherichia coli test and the MEF cell test, the intensity of fluorescence emitted from AFFP was set to 1 in numerical representation and plotting of fluorescence intensity.

[5] = Escherichia coli test: pH dependency of fluorescence intensity; assay type: physicochemical
Description: As a control for AFFP, a protein was selected as appropriate from green fluorescent proteins (EGFP and Sapphire), a yellow fluorescent protein (Ypet), and red fluorescent proteins (mCherry and Tag-RFP).
With use of EGFP and mCherry as controls, an Escherichia coli test was conducted to examine pH dependency of a change in fluorescence intensity of AFFP. In the Escherichia coli test, fluorescence intensity of a purified recombinant protein obtained was measured under nine pH conditions ranging from pH 4.0 to 8.0 with an increment of 0.5. The fluorescence intensity of each fluorescent protein under each pH condition was plotted. Note that the plotting was performed in such a manner that a maximum fluorescence intensity of each fluorescent protein was set to 1, and fluorescence intensities of the fluorescent protein under other pH conditions were plotted as relative values with respect to 1.
With use of EGFP, Sapphire, Ypet, mCherry, and Tag-RFP as controls, an Escherichia coli test was conducted to examine pH dependency of a change in fluorescence intensity of AFFP. In the Escherichia coli test, fluorescence intensities in respective cases of pH 7.0 and pH 4.0 were measured. Then, fluorescence intensities of the fluorescent proteins under the two pH conditions were compared. Note that the fluorescence intensity of each protein at pH 7.0 was set to 1. […]

[6] = acidic condition (pH 4.0/no pepsin)
[7] = acidic condition with pepsin added (pH 4.0/0.05% pepsin)
[8] = neutral condition (pH 7.0/no pepsin)

N#CC(C#N)=NNc1cccc(Cl)c1 [CCCP, carbonyl cyanide m-chlorophenylhydrazone]
mitophagy induction (red points in ratio images) (MEF cells [1]): significant increase of red points

SRAI: FRET probe obtained by ligating Ypet, a (GGGGS)3 linker, and AFFP in this order
fluorescence spectrum, excitation 410 nm (pepsin; [6]): reduction in peak of fluorescence from Ypet | fluorescence spectrum, excitation 500 nm (pepsin; [6]): single weak peak | fluorescence spectrum, excitation 410 nm (pepsin; [7]): only a single peak that was based on fluorescence from AFFP | fluorescence spectrum, excitation 500 nm (pepsin; [7]): no fluorescence | fluorescence spectrum, excitation 410 nm (pepsin; [8]): two peaks | fluorescence spectrum, excitation 500 nm (pepsin; [8]): single intense peak | autophagy signal (bright points, high-ratio structures in ratio image) (MEF cells [2]): a bright point (dot) and a red point in a ratio image were observed | autophagy signal before and after fixation (MEF cells [3]): little change was observed

B1: AFFP: modified mAG407 further having mutations T58S, V60S, T82A, R184S, K199E, Y210C, Y217A; green fluorescent protein used as FRET donor (protein)
chain: MVSVIKPEMKIKLCMRGTVNGHNFVIEGEGKGNPYEGTQILDLNVTEGAPLPFAYDILSTSFQYGNRAFTKYPADIQDYFKQAFPEGYHWERSMTYEDQGICTATSNISMRGDCFFYDIRFDGTNFPPNGPVMQKKTLKWEPDTEKMYVEDGVLKGDVNMRLLLEGGGHYRCDVKTTYKAKKEVSLPDAHKIDHRIEILEHDKDYNKVKLCENAVARASMLPSQAK
degradation by acidic protease (western blotting, fluorescence) (pepsin; pH 4.0/0.05% pepsin, 37° C., 2 hours): not degraded by acidic protease | fluorescence intensity relative to mAG407 [4]: 2.5 times | pH dependency of fluorescence intensity ([5]; nine pH conditions, pH 4.0 to 8.0, controls EGFP and mCherry): substantially constant fluorescence intensity | fluorescence intensity at pH 4.0 versus pH 7.0 ([5]; pH 7.0 set to 1, controls EGFP, Sapphire, Ypet, mCherry, Tag-RFP): not affected by a change in pH
